Assays:
[1] = biological target: IgG; test: fluorescence titration spectroscopy
[2] = biological target: IgG; test: steady-state fluorescence titration (quenching of TRIM21 tryptophan fluorescence on titration of IgG)
[3] = biological target: recombinant full-length TRIM21 (human) (UniProt P19474); test: steady-state fluorescence titration: quenching of intrinsic TRIM21 tryptophan fluorescence on titration of IgG
[4] = biological target: ΔRING-ΔBOX TRIM21 (human) (UniProt P19474); test: as above

Kd [1] [nM] | Kd [2] [nM] | EC50 (read off the curve) [3] [nM] | EC50 (read off the curve) [4] [nM] | Substance
< 1 | 0.6 | – | – | recombinant full-length TRIM21 (from UniProt P19474 1-475) (receptor)
– | – | 1 | 3 | IgG (antibody)
< 1 | 0.9 | – | – | ΔRING-ΔBOX TRIM21 (from UniProt P19474 129-475) (receptor)
